Results from article PMC11696352.

Molecular target: importin α5 (UniProt P52294)
Assay: Flag co-IP, immunoblot
Details: reference: Flag-GCLM wild type; sites T17

binding against the reference: weaker
Substance: GCLM (glutamate-cysteine ligase modifier subunit) (from UniProt P48507) Flag-GCLM T17A
